Source: US12281155 (INSTITUT PASTEUR, dated 2025)

Assays:
[1] = target: T1, recombinant SARS-CoV-2 Spike RBD domain, JN-1 variant (SARS-CoV-2); experiment: competition ELISA, blocking of RBD binding to ACE2 ectodomain
T1 construct: also called RBD JN-1 variant

[2] = target: T2, recombinant SARS-CoV-2 Spike RBD domain, BA.2.86 variant (SARS-CoV-2); experiment: as above
T2 construct: also called RBD BA.2.86 variant

[3] = target: T3, recombinant SARS-CoV-2 Spike RBD domain, BA.2 variant (SARS-CoV-2); experiment: as above
T3 construct: also called RBD BA.2. variant

[4] = target: T4, recombinant SARS-CoV-2 Spike RBD domain, XBB.1.5 variant (SARS-CoV-2); experiment: as above
T4 construct: also called RBD XBB.1.5 variant

[5] = target: T5, recombinant SARS-CoV-2 Spike RBD domain, XBB.1.16 variant (SARS-CoV-2); experiment: as above
T5 construct: also called RBD XBB.1.16 variant

[6] = target: T6, recombinant SARS-CoV-2 Spike RBD domain, Delta variant (SARS-CoV-2); experiment: as above
T6 construct: also called RBD Delta variant

[7] = target: T7, recombinant SARS-CoV-2 Spike RBD domain, BQ.1.1 variant (SARS-CoV-2); experiment: as above
T7 construct: also called RBD BQ.1.1. variant

[8] = target: T8, recombinant SARS-CoV-2 Spike RBD domain, BA.4/5 variant (SARS-CoV-2); experiment: as above
T8 construct: also called RBD BA.4/5 variant

[9] = target: T9, recombinant SARS-CoV-2 Spike RBD domain, EG.5 variant (SARS-CoV-2); experiment: as above
T9 construct: also called RBD EG.5.1 variant

[10] = target: T10, recombinant SARS-CoV-2 Spike RBD domain, BA.2.75.2 variant (SARS-CoV-2); experiment: as above
T10 construct: also called RBD BA.2.75.2 variant

[11] = target: Spike protein of SARS-CoV-2 strain EG.5.1 (hCoV-19/France/GES-IPP15954/2023) (SARS-CoV-2); experiment: cell-based or functional assay
[12] = target: Spike protein of SARS-CoV-2 strain D614G (hCoV-19/France/GE1973/2020) (SARS-CoV-2, UniProt P0DTC2 14-1273); experiment: cell-based or functional assay
[13] = target: Spike protein of SARS-CoV-2 strain XBB.1.16 (hCoV-19/France/GES-IPP7712/2023) (SARS-CoV-2); experiment: cell-based or functional assay
[14] = target: Spike protein of SARS-CoV-2 strain XBB.1.5 (GISAID EPI_ISL_16353849) (SARS-CoV-2); experiment: cell-based or functional assay
[15] = target: Spike protein of SARS-CoV-2 strain BA.2.86 (hCoV-19/France/IDF-IPP17625/2023) (SARS-CoV-2); experiment: cell-based or functional assay
[16] = target: Spike protein of SARS-CoV-2 strain JN.1 (hCoV-19/France/HDF-IPP21391/2023) (SARS-CoV-2); experiment: cell-based or functional assay
[17] = target: T1, recombinant SARS-CoV-2 Spike RBD …; experiment: ELISA on coated RBD
[18] = target: T2, recombinant SARS-CoV-2 Spike RBD …; experiment: ELISA on coated RBD
[19] = target: T3, recombinant SARS-CoV-2 Spike RBD …; experiment: ELISA on coated RBD
[20] = target: T4, recombinant SARS-CoV-2 Spike RBD …; experiment: ELISA on coated RBD
[21] = target: T5, recombinant SARS-CoV-2 Spike RBD …; experiment: ELISA on coated RBD
[22] = target: T6, recombinant SARS-CoV-2 Spike RBD …; experiment: ELISA on coated RBD
[23] = target: T7, recombinant SARS-CoV-2 Spike RBD …; experiment: ELISA on coated RBD
[24] = target: T8, recombinant SARS-CoV-2 Spike RBD …; experiment: ELISA on coated RBD
[25] = target: T9, recombinant SARS-CoV-2 Spike RBD …; experiment: ELISA on coated RBD
[26] = target: T10, recombinant SARS-CoV-2 Spike RBD …; experiment: ELISA on coated RBD

Row | Binder | Blocking % [1] | Blocking % [2] | Blocking % [3] | Blocking % [4] | Blocking % [5] | Blocking % [6] | Blocking % [7] | Blocking % [8] | Blocking % [9] | Blocking % [10] | IC50, S-Fuse neutralization of live virus [11] | IC50, S-Fuse neutralization of live virus [12] | IC50, S-Fuse neutralization of live virus [13] | IC50, S-Fuse neutralization of live virus [14] | IC50, S-Fuse neutralization of live virus [15] | IC50, S-Fuse neutralization of live virus [16] | Binding AUC [17] | Binding AUC [18] | Binding AUC [19] | Binding AUC [20] | other results
1 | SPK002M A5 antibody (antibody, human IgG1, kappa, V domains shown) VH: EVQLVESGGGLIQPGGSLRLSCAASVITVTSNYMSWVRQAPGKGLEWVSVIYPGGSTFYADSVKGRFTISADNSKNTLYLQMNSLRAEDTAVYYCARDLVVYGMDVWGQGTTVTVSS VL: EIVLTQSPGTLSLSPGERATLSCRASQSVSSSYLAWYQQKPGQAPRLLIYGASSRATGIPGRFSGSGSGTDFTLTISRLEPEDFAIYYCQQGVTFGGGTKVEIKR | 2% | 84% | 93% | 95% | 95% | 93% | 96% | 96% | 83% | 95% | 2.86 µg/mL | 0.09 µg/mL | 0.36 µg/mL | 0.12 µg/mL | 0.08 µg/mL | 50.9 µg/mL | 32 | 38 | 27 | 35 | Binding AUC [21]: 31; Binding AUC [22]: 33; Binding AUC [23]: 30; Binding AUC [24]: 32; Binding AUC [25]: 35; Binding AUC [26]: 34
2 | SPK002M B1 antibody (antibody, human IgG1, kappa, V domains shown) VH: EVQLVESGGGLIQPGGSLRLSCAASIITVTSNYMSWVRQAPGKGLEWVSVIYPGGSTFYADSVKGRFTISYDNSKNTLYLQMNSLRAEDTAVYYCARDLVVYGMDVWGQGTTVTVSS VL: EIVLTQSPGTLSLSPGERATLSCRASQSVSDSYLAWYQQKPGQAPRLLIYGASSRATGIPGRFSGSGSGTDFTLTISRLEPEDFAIYYCQYGVTFGGGTKVEIKR | 66% | 94% | 95% | 97% | 97% | 91% | 97% | 95% | 95% | 91% | 0.19 µg/mL | 0.11 µg/mL | 0.18 µg/mL | 0.07 µg/mL | 0.03 µg/mL | 4.1 µg/mL | 38 | 39 | 29 | 31 | Binding AUC [21]: 30; Binding AUC [22]: 33; Binding AUC [23]: 31; Binding AUC [24]: 31; Binding AUC [25]: 33; Binding AUC [26]: 30
3 | SPK002M B2 antibody (antibody, human IgG1, kappa, V domains shown) VH: EVQLVESGGGLIQPGGSLRLSCAASIITVTSNYMSWVRQAPGKGLEWVSVIYPGGSTFYADSVKGRFTISYDNSKNTLYLQMNSLRAEDTAVYYCARDLVVYGMDVWGQGTTVTVSS VL: EIVLTQSPGTLSLSPGERATLSCRASQSVSSSYLAWYQQKPGQAPRLLIYGASSRATGIPGRFSGSGSGTDFTLTISRLEPEDFAIYYCQQGVTFGGGTKVEIKR | 0% | 86% | 92% | 92% | 92% | 88% | 95% | 91% | 70% | 91% | 5.53 µg/mL | 0.09 µg/mL | 0.32 µg/mL | 0.14 µg/mL | 0.19 µg/mL | 85.8 µg/mL | 28 | 39 | 26 | 32 | Binding AUC [21]: 30; Binding AUC [22]: 32; Binding AUC [23]: 31; Binding AUC [24]: 30; Binding AUC [25]: 32; Binding AUC [26]: 29
4 | SPK002M C1 antibody (antibody, human IgG1, kappa, V domains shown) VH: EVQLVESGGGLIQPGGSLRLSCAASIITVTSNYMSWVRQAPGKGLEWVSVAYPGGSTFYADSVKGRFTISTDNSKNTLYLQMNSLRAEDTAVYYCARDLVVYGMDVWGQGTTVTVSS VL: EIVLTQSPGTLSLSPGERATLSCRASQSVSDSYLAWYQQKPGQAPRLLIYGASSRATGIPGRFSGSGSGTDFTLTISRLEPEDFAVYYCQYGVTFGGGTKVEIKR | 83% | 96% | 95% | 96% | 96% | 94% | 97% | 97% | 96% | 95% | 0.16 µg/mL | 0.08 µg/mL | 0.12 µg/mL | 0.07 µg/mL | 0.03 µg/mL | 1.73 µg/mL | 39 | 38 | 28 | 31 | Binding AUC [21]: 29; Binding AUC [22]: 32; Binding AUC [23]: 31; Binding AUC [24]: 30; Binding AUC [25]: 32; Binding AUC [26]: 28
5 | SPK002M C2 antibody (antibody, human IgG1, kappa, V domains shown) VH: EVQLVESGGGLIQPGGSLRLSCAASIITVTSNYMSWVRQAPGKGLEWVSVAYPGGSTFYADSVKGRFTISTDNSKNTLYLQMNSLRAEDTAVYYCARDLVVYGMDVWGQGTTVTVSS VL: EIVLTQSPGTLSLSPGERATLSCRASQSVSSSYLAWYQQKPGQAPRLLIYGASSRATGIPGRFSGSGSGTDFTLTISRLEPEDFAVYYCQQGVTFGGGTKVEIKR | 28% | 91% | 93% | 93% | 93% | 90% | 95% | 93% | 89% | 92% | 2.16 µg/mL | 0.06 µg/mL | 0.21 µg/mL | 0.14 µg/mL | 0.05 µg/mL | 53.8 µg/mL | 33 | 38 | 23 | 31 | Binding AUC [21]: 29; Binding AUC [22]: 32; Binding AUC [23]: 31; Binding AUC [24]: 30; Binding AUC [25]: 32; Binding AUC [26]: 28
